The source of these data is publication PMC9375587.

As a reminder, the Kd is the constant that tells how readily two partners part at equilibrium. A high value points to weaker binding. One may read the koff as a measure of how fast the partners let go of each other. A low value points to a long-lived complex. As a reminder, the kon is the second-order rate constant of association. A high value points to faster complex formation.

For assay [1], the target named is 2 CP-dimeric MPO complex (CP-MPO-MPO-CP) (human (endogenous in donor blood plasma) | human) (UniProt P00450). Nature of the assay: solid-phase enzyme assay.
For assay [2], the target named is Myeloperoxidase (MPO), native, dimeric (human) (UniProt P05164). Kind of assay: SPR. On the technique in general: In SPR one partner is held on a chip, and binding of the other changes the refractive index at the surface.

In assay [1], Alpha-thrombin (FIIa) (enzyme) gave a Kd of 0.046 µM.
In assay [2], “Ceruloplasmin proteolyzed by thrombin (FIIa) (from UniProt P00450 501-906) (natural protein)” yielded a dissociation constant (Kd) of 0.327 µM, an off-rate (koff) of 0.422 s⁻¹ and an association rate constant (kon) of 12900 M⁻¹ s⁻¹.
